In patent publication US20250295734A1, “ANTICOAGULANT PROTEINS AND THEIR USE FOR TREATING DISEASES ASSOCIATED WITH THE ACTIVATION OF NEUTROPHILS” (BIOXODES, priority 2018, published 2025):
“Also recorded” adds a separate entry of the source.

How the values were obtained:
[1] = test system: thrombin generation induced by TF (extrinsic pathway activator); conditions: induced by low concentration of TF (5 pM); cited from earlier work
FXII zymogen = biological target: T1, FXII zymogen (Homo sapiens, UniProt P00748); conditions: cited from earlier work
T1 sequence (P00748 20-615): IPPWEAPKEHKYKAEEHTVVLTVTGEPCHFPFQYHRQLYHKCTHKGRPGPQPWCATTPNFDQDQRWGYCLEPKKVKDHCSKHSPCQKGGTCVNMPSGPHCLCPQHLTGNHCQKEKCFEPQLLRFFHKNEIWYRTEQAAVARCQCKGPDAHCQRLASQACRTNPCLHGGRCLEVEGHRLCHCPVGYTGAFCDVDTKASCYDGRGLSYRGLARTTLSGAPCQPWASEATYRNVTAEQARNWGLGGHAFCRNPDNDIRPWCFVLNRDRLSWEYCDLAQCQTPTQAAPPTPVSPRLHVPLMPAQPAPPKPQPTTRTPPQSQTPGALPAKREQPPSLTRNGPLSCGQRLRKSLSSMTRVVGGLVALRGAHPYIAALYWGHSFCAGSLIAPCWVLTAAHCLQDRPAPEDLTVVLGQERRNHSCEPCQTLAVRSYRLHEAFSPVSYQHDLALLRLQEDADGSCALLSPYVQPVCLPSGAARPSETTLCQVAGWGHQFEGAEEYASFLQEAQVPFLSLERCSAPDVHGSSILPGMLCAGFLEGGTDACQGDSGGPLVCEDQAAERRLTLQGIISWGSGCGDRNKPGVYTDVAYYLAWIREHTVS

prekallikrein (PK) = prekallikrein (PK) (Homo sapiens, UniProt P03952); conditions: cited from earlier work
[2] = rodents; pharmacological therapeutic active dose; cited from earlier work
[3] = test system: platelet accumulation and fibrin generation in Panc02 tumor-bearing mice; test: Laser injury in pancreatic cancer-bearing mice (cancer-associated thrombosis model); assay type: in vivo, mice (C57BL/6JRj); conditions: for fibrin generation compared to NaCl cancer mice / platelet accumulation compared to NaCl cancer mice: tumor-bearing mice
Procedure: Murine Panc02 cells (mouse pancreatic ductal adenocarcinoma cell line) were cultured to a 80% confluence in RPMI-1640 medium (Life Technologies) supplemented with 10% FCS (PAA), 1000 U/mL penicillin (Life Technologies), 100 μg/mL streptomycin (Life Technologies) and 0.1% fungizone (Life Technologies) at 37° C. in a humidified atmosphere with 5% CO2. Once in the exponential growth phase, cells were washed three times with PBS and briefly exposed to non-enzymatic cell dissociation buffer (Life
Technologies) to dislodge the cells. The cells were carefully washed three times, resuspended in PBS, and diluted to the desired concentration.
Five-week-old C57BL/6 mice were injected subcutaneously in the right flank with a tumor cell suspension (10^6 cells in 100 μL of PBS). When the tumor became palpable (0.2 cm), measurements in two dimensions were performed with a caliper, and the volume of each tumor was calculated according to the formula for the volume of an ellipsoid: π/6×a(b)^2, where a is the largest diameter and b the smallest diameter of the tumor.
Intravital video-microscopy of the cremaster muscle microcirculation was done as previously described (Falati et al., 2002) and as described hereinabove (see Example 1).
Vessel wall injury was induced with a Micropoint Laser System (Photonics Instruments) as described hereinabove (see Example 1).
Platelet and fibrin accumulation after injury were monitored and detected as indicated hereinabove (see Example 1).
Tumor-bearing mice were attributed to the Ir-CPI-treated group (Ir-CPI cancer) or to the control group (NaCl cancer). Moreover, cancer-free mice treated with NaCl (NaCl cancer-free) were also used as negative control. All mice were submitted to laser injuries in arterioles of the cremaster muscle to trigger thrombosis. Ir-CPI treated mice received either a low or a high dose of the investigative product.
Platelet accumulation and fibrin generation on the injured vessel walls were monitored using the following fluorescently labeled antibodies: DyLight649-labeled anti-GPIb antibody and Alexa Fluor 488-conjugated anti-fibrin antibody, respectively.

[4] = High dose: 20.5 mg/kg bolus + 3.7 mg/kg/h
[5] = Low dose: 10.3 mg/kg bolus + 1.9 mg/kg/h

prekallikrein (PK), sequence (P03952 20-638): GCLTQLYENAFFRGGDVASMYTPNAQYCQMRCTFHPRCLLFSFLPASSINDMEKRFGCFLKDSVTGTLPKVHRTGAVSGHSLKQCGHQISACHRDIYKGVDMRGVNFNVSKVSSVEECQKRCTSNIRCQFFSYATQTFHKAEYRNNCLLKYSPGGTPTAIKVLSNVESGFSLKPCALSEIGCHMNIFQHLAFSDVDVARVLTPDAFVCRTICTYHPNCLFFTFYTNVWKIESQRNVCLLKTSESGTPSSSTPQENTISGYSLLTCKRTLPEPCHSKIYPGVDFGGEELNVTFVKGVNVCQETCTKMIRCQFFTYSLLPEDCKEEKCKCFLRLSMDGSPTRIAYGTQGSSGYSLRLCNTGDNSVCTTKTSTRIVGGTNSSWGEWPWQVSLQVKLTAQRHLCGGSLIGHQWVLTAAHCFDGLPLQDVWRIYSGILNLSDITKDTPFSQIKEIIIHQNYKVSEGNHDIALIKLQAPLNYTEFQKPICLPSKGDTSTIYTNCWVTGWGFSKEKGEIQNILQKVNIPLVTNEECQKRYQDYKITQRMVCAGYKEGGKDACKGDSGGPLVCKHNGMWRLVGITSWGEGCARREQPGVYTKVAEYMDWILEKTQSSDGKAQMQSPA

B1: Ir-CPI: Ixodes ricinus salivary gland polypeptide, contact phase inhibitor, MW=7660 Da; sequence SEQ ID NO: 1 or SEQ ID NO: 2 (protein)
chain: ANHKGRGRPAKCKLPPDDGPCRARIPSYYFDRKTKTCKEFMYGGCEGNENNFENITTCQEECRAKKV
thrombin generation [1]: quite inactive | binding to FXII zymogen (FXII zymogen): but not to their zymogen forms; also recorded: unable to bind directly | binding to prekallikrein (PK) (prekallikrein (PK)): unable to bind | bleeding [2]: does not increase bleeding | fibrin generation compared to NaCl cancer mice [3, 4]: significant decrease | platelet accumulation compared to NaCl cancer mice [3, 4]: significant decrease | integrated fluorescence intensity of platelet labeling (area under curve) ([3]; High dose, vs NaCl cancer-free mice (*p<0.05) and NaCl cancer mice (***p<0.001)): significantly lower | fibrin generation compared to NaCl cancer mice [3, 5]: significant decrease | platelet accumulation compared to NaCl cancer mice [3, 5]: significant decrease
